Measured values from article PMC10731242, “Macromolecular crowding potently stimulates DNA supercoiling activity of Mycobacterium tuberculosis DNA gyrase” (The Journal of Biological Chemistry, 2023).

Target: T1, Mycobacterium tuberculosis DNA gyrase subunit A (Mycobacterium tuberculosis, UniProt P9WG47 1-838)
T1 construct: also called Mtb GyrA; Mtb gyrase subunit A
Assay: SEC
Settings: both partners purified

T1 sequence (P9WG47 whole entry): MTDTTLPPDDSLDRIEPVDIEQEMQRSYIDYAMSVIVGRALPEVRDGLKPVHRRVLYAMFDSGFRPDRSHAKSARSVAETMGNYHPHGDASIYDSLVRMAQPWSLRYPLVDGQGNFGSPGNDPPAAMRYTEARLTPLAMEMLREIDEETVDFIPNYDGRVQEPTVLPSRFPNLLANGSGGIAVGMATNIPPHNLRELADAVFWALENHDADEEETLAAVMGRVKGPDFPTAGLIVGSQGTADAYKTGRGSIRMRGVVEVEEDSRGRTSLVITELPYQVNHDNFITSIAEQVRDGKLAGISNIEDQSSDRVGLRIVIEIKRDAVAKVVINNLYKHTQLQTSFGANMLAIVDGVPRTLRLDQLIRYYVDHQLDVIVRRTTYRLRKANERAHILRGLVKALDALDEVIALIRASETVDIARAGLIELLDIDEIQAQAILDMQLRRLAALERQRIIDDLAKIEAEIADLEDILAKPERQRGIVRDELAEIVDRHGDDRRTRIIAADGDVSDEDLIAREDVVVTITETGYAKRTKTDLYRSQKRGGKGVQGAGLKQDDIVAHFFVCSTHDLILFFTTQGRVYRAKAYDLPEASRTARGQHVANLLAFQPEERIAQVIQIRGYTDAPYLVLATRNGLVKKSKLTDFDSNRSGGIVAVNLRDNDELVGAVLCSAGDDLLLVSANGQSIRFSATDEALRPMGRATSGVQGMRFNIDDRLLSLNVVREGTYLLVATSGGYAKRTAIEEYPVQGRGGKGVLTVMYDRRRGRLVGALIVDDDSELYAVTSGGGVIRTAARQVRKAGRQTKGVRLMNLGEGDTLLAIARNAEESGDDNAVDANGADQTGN

B1: Mycobacterium tuberculosis DNA gyrase subunit B (enzyme)
chain: MAAQKKKAQDEYGAASITILEGLEAVRKRPGMYIGSTGERGLHHLIWEVVDNAVDEAMAGYATTVNVVLLEDGGVEVADDGRGIPVATHASGIPTVDVVMTQLHAGGKFDSDAYAISGGLHGVGVSVVNALSTRLEVEIKRDGYEWSQVYEKSEPLGLKQGAPTKKTGSTVRFWADPAVFETTEYDFETVARRLQEMAFLNKGLTINLTDERVTQDEVVDEVVSDVAEAPKSASERAAESTAPHKVKSRTFHYPGGLVDFVKHINRTKNAIHSSIVDFSGKGTGHEVEIAMQWNAGYSESVHTFANTINTHEGGTHEEGFRSALTSVVNKYAKDRKLLKDKDPNLTGDDIREGLAAVISVKVSEPQFEGQTKTKLGNTEVKSFVQKVCNEQLTHWFEANPTDAKVVVNKAVSSAQARIAARKARELVRRKSATDIGGLPGKLADCRSTDPRKSELYVVEGDSAGGSAKSGRDSMFQAILPLRGKIINVEKARIDRVLKNTEVQAIITALGTGIHDEFDIGKLRYHKIVLMADADVDGQHISTLLLTLLFRFMRPLIENGHVFLAQPPLYKLKWQRSDPEFAYSDRERDGLLEAGLKAGKKINKEDGIQRYKGLGEMDAKELWETTMDPSVRVLRQVTLDDAAAADELFSILMGEDVDARRSFITRNAKDVRFLDV
notes: also called Mtb GyrB; gyrB
Q: Does B1 bind?
A: binds
